This note sets out measurements from patent publication US20250388676A1.

For test [1], the target named is cynomolgus GITR (cynomolgus monkey). Put plainly: flow cytometry on NFkB-NlucP/HEK293 cells expressing cyno GITR, detection with anti-human IgG Fc F(ab')2 [panel B]. (In general: A flow cytometer gives signals particle by particle.)
Test [2] deals with human CD27 on reporter cells (human) (UniProt P26842). The test can be described thus: cell-based or functional assay.
The target of test [3] is CD27 (analyte in solution) (UniProt P26842). The test can be described thus: SPR (Biacore), construct captured on CM5 chip via anti-human Fc or Fab, antigen as analyte, 25 C.
The target in test [4] is human OX40 on Jurkat NF-kB-Luc2 OX40 reporter cells (human) (UniProt P43489). The test can be described thus: cell-based or functional assay.
For test [5], the target named is OX40 (analyte in solution) (UniProt P43489). The test can be described thus: SPR (Biacore), construct captured on CM5 chip via anti-human Fc or Fab, antigen as analyte, 25 C. Background: SPR reads the build-up and loss of mass on a sensor chip optically.
For test [6], the target named is activated human T cells. The test can be described thus: flow cytometry on activated primary human T cells, detection with anti-human IgG Fc F(ab')2 [panel A].
The target in test [7] is activated cyno T cells. Put plainly: flow cytometry on activated primary cynomolgus T cells, detection with anti-human IgG Fc F(ab')2 [panel B].
For test [8], the target named is human LTBR on Jurkat NF-kB reporter cells (human) (UniProt P36941). Put plainly: cell-based or functional assay.
For test [9], the target named is human HVEM on Jurkat NF-kB reporter cells (human) (UniProt Q92956). Put plainly: cell-based or functional assay.
In test [10] the target is HVEM (analyte in solution) (UniProt Q92956). Put plainly: SPR (Biacore), construct captured on CM5 chip via anti-human Fc or Fab, antigen as analyte, 25 C.
Chain of HVEM (analyte in solution) (Q92956 39-202 limits assumed): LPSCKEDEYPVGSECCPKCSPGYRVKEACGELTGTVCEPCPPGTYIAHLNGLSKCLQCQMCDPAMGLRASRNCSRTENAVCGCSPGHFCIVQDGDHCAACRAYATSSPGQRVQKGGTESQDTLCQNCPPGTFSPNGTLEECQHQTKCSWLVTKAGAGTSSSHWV

Chain of human LTBR on Jurkat NF-kB reporter cells (human) (P36941 31-435): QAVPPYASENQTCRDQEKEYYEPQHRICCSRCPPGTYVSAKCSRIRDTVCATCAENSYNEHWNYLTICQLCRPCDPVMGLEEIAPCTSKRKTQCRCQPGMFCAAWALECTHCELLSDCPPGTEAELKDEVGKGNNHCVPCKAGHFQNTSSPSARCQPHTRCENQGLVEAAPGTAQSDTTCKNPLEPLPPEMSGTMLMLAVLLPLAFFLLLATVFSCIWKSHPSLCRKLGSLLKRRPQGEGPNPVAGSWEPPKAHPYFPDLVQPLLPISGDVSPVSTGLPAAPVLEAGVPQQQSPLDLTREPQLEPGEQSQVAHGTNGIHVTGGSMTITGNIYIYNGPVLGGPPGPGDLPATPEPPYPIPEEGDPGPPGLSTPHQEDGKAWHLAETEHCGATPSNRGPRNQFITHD
Chain of human OX40 on Jurkat NF-kB-Luc2 OX40 reporter cells (human) (P43489 29-277): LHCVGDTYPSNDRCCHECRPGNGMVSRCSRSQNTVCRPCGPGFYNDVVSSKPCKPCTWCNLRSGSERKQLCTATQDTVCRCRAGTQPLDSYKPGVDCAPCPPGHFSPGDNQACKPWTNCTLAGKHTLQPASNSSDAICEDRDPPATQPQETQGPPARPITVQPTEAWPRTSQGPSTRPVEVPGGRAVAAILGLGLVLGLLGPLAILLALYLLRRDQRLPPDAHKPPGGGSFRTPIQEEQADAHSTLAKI
Chain of OX40 (analyte in solution) (P43489 29-214 limits assumed): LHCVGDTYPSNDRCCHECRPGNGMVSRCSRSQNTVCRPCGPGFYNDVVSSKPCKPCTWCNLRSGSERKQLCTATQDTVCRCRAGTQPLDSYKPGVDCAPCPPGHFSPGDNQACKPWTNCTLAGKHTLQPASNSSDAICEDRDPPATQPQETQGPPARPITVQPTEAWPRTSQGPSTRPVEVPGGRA
Chain of human HVEM on Jurkat NF-kB reporter cells (human) (Q92956 39-283): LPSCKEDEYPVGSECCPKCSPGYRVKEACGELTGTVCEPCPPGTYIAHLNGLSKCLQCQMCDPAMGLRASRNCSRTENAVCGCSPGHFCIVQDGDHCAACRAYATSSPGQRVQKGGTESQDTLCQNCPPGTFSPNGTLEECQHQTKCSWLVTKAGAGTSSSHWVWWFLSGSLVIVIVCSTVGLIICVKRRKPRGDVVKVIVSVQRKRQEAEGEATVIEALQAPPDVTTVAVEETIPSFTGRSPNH
Chain of CD27 (analyte in solution) (P26842 20-191 limits assumed): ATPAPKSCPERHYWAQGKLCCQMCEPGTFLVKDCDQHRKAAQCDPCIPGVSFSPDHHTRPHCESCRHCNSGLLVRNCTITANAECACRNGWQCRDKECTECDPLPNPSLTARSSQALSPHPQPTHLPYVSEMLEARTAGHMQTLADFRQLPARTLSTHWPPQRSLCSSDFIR
Chain of human CD27 on reporter cells (human) (P26842 20-260): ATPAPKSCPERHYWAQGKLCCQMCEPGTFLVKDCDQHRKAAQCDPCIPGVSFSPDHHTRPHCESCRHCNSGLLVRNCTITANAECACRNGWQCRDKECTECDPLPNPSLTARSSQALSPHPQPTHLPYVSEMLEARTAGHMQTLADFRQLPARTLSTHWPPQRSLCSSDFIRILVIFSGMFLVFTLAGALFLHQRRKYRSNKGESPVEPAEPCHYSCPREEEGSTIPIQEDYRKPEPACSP

B1: GITRL/irrelevant control (antibody, part only; not given: irrelevant anti-TNP binding site, not shown: another chain or arm of the molecule; small tags and cut ends)
chain: QLETAKEPCMAKFGPLPSKWQMASSEPPCVNKVSDWKLEILQNGLYLIYGQVAPNANYNDVAPFEVRLYKNKDMIQTLTNKSKIQNVGGTYELHVGDTIDLIFNSEHQVLKNNTYWGIILLANPQFISGGGGSGGGGSQLETAKEPCMAKFGPLPSKWQMASSEPPCVNKVSDWKLEILQNGLYLIYGQVAPNANYNDVAPFEVRLYKNKDMIQTLTNKSKIQNVGGTYELHVGDTIDLIFNSEHQVLKNNTYWGIILLANPQFISGGGGSGGGGSQLETAKEPCMAKFGPLPSKWQMASSEPPCVNKVSDWKLEILQNGLYLIYGQVAPNANYNDVAPFEVRLYKNKDMIQTLTNKSKIQNVGGTYELHVGDTIDLIFNSEHQVLKNNTYWGIILLANPQFIS
For B1, the EC50 (read off the curve) (as a rule, the concentration giving half of the maximal effect) in [1] worked out at 20 pM.

B2: CD70 monospecific (protein, part only; not given: carrier Fab or Fc and linkers, not shown: another chain or arm of the molecule; a dimerising Fc or GST; large carriers; small tags and cut ends)
chain: GWDVAELQLNHTGPQQDPRLYWQGGPALGRSFLHGPELDKGQLRIHRDGIYMVHIQVTLAICSSTTASRHHPTTLAVGICSPASRSISLLRLSFHQGCTIASQRLTPLARGDTLCTNLTGTLLPSRNTDETFFGVQWVRPGGGGSGGGGSGWDVAELQLNHTGPQQDPRLYWQGGPALGRSFLHGPELDKGQLRIHRDGIYMVHIQVTLAICSSTTASRHHPTTLAVGICSPASRSISLLRLSFHQGCTIASQRLTPLARGDTLCTNLTGTLLPSRNTDETFFGVQWVRPGGGGSGGGGSGWDVAELQLNHTGPQQDPRLYWQGGPALGRSFLHGPELDKGQLRIHRDGIYMVHIQVTLAICSSTTASRHHPTTLAVGICSPASRSISLLRLSFHQGCTIASQRLTPLARGDTLCTNLTGTLLPSRNTDETFFGVQWVRP
The molecule B2 gave a CD27 reporter EC50 in test [2] of 1900 pM. In addition, the Average binding Relative (RU) in test [3] is 32.7 RU.

B3: OX40L monospecific (protein, part only; not given: carrier Fab or Fc and linkers, not shown: another chain or arm of the molecule; a dimerising Fc or GST; large carriers; small tags and cut ends)
chain: QVSHRYPRIQSIKVQFTEYKKEKGFILTSQKEDEIMKVQDNSVIINCDGFYLISLKGYFSQEVDISLHYQKDEEPLFQLKKVRSVNSLMVASLTYKDKVYLNVTTDNTSLDDFHVNGGELILIHQNPGEFCVLGGGGSGGGGSQVSHRYPRIQSIKVQFTEYKKEKGFILTSQKEDEIMKVQDNSVIINCDGFYLISLKGYFSQEVDISLHYQKDEEPLFQLKKVRSVNSLMVASLTYKDKVYLNVTTDNTSLDDFHVNGGELILIHQNPGEFCVLGGGGSGGGGSQVSHRYPRIQSIKVQFTEYKKEKGFILTSQKEDEIMKVQDNSVIINCDGFYLISLKGYFSQEVDISLHYQKDEEPLFQLKKVRSVNSLMVASLTYKDKVYLNVTTDNTSLDDFHVNGGELILIHQNPGEFCVL
B3 came in with an OX40 reporter EC50 in test [4] of 740 pM. The molecule further registered an Average binding Relative (RU) in test [5] of 23.7 RU.

B4: GITRLmut/anti-PD-1 mAb1 (antibody, part only; not given: mutant GITRL, constant regions, linkers, not shown: a dimerising Fc or GST)
heavy, part: QLQLQESGPGLVKPSETLSLTCTVSGGSISTSSYFWGWIRQPPGKGLEWIGSIYRSGSTYYNPSLKSRVTISVDTSKNQFSLKLSSVTAADTAVYYCARGITGDPGDYWGQGTLVTVSS
light, part: EIVLTQSPATLSLSPGERATLSCGASQSVSINFLAWYQQKPGLAPRLLIYEASSRATGIPDRFSGSGSGTDFTLTISRLEPEDFAVYYCQQYGSSPYTFGQGTKLEIK
For the molecule B4, the EC50 (read off the curve) worked out at 400 pM in test [6] and 600 pM in test [7].

B5: GITRLmut/anti-PD-1 mAb2 (antibody, part only; not given: mutant GITRL, constant regions, linkers, not shown: a dimerising Fc or GST)
heavy, part: QLQLQESGPGLVKPSETLSLTCTVSGGSISSSSYFWGWIRQPPGKGLEWIGSIYRSGSTYYNPSLKSRVTISVDTSKNQFSLKLSSVTAADTAVYYCARGITGDPGDYWGQGTLVTVSS
light, part: EIVLTQSPATLSLSPGERATLSCGASQSVPINFLAWYQQKPGLAPRLLIYEASSRHTGIPDRFSGSGSGTDFTLTISRLEPEDFAVYYCGQYGSSPYTFGQGTKLEIK
With B5, the EC50 (read off the curve) in [6] was found to be 100 pM; in test [7] it was 200 pM.

B6: LIGHT monospecific (protein, part only; not given: carrier Fab or Fc and linkers, not shown: another chain or arm of the molecule; a dimerising Fc or GST; large carriers; small tags and cut ends)
chain: LIQERRSHEVNPAAHLTGANSSLTGSGGPLLWETQLGLAFLRGLSYHDGALVVTKAGYYYIYSKVQLGGVGCPLGLASTITHGLYKRTPRYPEELELLVSQQSPCGRATSSSRVWWDSSFLGGVVHLEAGEKVVVRVLDERLVRLRDGTRSYFGAFMVGGGGSGGGGSLIQERRSHEVNPAAHLTGANSSLTGSGGPLLWETQLGLAFLRGLSYHDGALVVTKAGYYYIYSKVQLGGVGCPLGLASTITHGLYKRTPRYPEELELLVSQQSPCGRATSSSRVWWDSSFLGGVVHLEAGEKVVVRVLDERLVRLRDGTRSYFGAFMVGGGGSGGGGSLIQERRSHEVNPAAHLTGANSSLTGSGGPLLWETQLGLAFLRGLSYHDGALVVTKAGYYYIYSKVQLGGVGCPLGLASTITHGLYKRTPRYPEELELLVSQQSPCGRATSSSRVWWDSSFLGGVVHLEAGEKVVVRVLDERLVRLRDGTRSYFGAFMV
Molecule B6 showed an LTBR reporter EC50 in test [8] of 5.7 pM. This molecule showed an HVEM reporter EC50 in test [9] of 50 pM. Also, the Average binding Relative (RU) in [10] amounted to 1.69 RU.
